Positions of bridges follow the written chain, without caps; N, C: chain ends. Non-standard residues stand in square brackets, D forms with d. Trp(1-Me) = Cn1cc(C[C@H](N)C(=O)O)c2ccccc21; NMeI = CC[C@H](C)[C@H](NC)C(=O)O; Sar = CNCC(=O)O Where only a bound is given, the exact number is not on record here.

Consider 13 molecules from patent US20220306695A1, “COMPSTATIN ANALOGUES AND THEIR MEDICAL USES” (priority 2019, published 2022).

In this assay the target is Human C3 (human, UniProt P01024 23-1663). The experiment in a line: cell-based or functional assay.
Human C3, sequence (P01024 23-1663 limits assumed): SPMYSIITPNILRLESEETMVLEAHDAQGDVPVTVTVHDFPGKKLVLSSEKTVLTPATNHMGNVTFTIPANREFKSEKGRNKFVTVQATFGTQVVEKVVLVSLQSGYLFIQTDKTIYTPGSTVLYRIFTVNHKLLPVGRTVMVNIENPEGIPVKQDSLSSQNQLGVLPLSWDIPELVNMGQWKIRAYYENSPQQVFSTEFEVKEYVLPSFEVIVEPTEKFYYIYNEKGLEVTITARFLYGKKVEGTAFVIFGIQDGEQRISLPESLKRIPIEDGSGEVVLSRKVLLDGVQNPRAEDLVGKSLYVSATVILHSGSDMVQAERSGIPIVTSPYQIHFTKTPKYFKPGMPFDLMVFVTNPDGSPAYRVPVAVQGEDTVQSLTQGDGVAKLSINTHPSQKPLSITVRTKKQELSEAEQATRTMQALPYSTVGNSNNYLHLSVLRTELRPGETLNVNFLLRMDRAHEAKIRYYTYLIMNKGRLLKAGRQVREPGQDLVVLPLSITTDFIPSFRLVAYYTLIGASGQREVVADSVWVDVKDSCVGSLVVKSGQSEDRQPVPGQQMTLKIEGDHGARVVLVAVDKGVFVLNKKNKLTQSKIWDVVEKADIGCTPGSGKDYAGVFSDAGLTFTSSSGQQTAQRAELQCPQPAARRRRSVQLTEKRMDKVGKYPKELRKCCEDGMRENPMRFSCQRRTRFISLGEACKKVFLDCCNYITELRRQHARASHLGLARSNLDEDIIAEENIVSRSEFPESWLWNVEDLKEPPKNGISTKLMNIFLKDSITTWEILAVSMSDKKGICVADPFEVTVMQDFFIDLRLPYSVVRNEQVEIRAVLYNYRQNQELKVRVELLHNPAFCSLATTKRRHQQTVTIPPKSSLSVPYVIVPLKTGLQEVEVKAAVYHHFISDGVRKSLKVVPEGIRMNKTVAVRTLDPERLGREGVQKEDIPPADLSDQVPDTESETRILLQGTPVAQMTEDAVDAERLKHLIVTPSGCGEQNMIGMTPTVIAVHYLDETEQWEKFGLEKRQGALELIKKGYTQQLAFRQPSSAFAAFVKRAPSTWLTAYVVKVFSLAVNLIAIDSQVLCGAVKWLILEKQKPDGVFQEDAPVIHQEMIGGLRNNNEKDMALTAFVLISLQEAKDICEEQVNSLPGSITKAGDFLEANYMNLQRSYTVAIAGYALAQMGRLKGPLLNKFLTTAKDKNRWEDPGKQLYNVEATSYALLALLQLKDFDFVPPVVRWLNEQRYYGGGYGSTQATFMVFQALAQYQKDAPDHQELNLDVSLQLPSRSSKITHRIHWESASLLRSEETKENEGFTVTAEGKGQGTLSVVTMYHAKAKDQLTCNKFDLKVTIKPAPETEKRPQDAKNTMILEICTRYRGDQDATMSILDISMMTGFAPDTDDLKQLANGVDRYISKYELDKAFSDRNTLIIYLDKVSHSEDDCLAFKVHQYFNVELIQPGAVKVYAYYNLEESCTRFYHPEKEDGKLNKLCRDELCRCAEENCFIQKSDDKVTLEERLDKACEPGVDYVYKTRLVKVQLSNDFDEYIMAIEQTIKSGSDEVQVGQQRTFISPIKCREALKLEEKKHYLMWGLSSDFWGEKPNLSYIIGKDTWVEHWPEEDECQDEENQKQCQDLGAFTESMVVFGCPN

B1: Compound 39 (peptide)
peptide: Ac-ICIWQDWGEHRCTEGK-NH2
modifications: disulfide 2-12
SMILES: CC[C@H](C)[C@H](NC(C)=O)C(=O)N[C@H]1CSSC[C@@H](C(=O)N[C@H](C(=O)N[C@@H](CCC(=O)O)C(=O)NCC(=O)N[C@@H](CCCCN)C(N)=O)[C@@H](C)O)NC(=O)[C@H](CCCNC(=N)N)NC(=O)[C@H](Cc2c[nH]cn2)NC(=O)[C@H](CCC(=O)O)NC(=O)CNC(=O)[C@H](Cc2c[nH]c3ccccc23)NC(=O)[C@H](CC(=O)O)NC(=O)[C@H](CCC(N)=O)NC(=O)[C@H](Cc2c[nH]c3ccccc23)NC(=O)[C@H]([C@@H](C)CC)NC1=O
Regarding B1, the “IC50[nM], inhibition of hemolysis” value was less than 100 nM.

B2: Compound 48 (peptide)
peptide: H-[dY]ICI[Trp(1-Me)]QDW[Sar]AHRC[NMeI]-NH2
modifications: disulfide 3-13
SMILES: CC[C@H](C)[C@H](NC(=O)[C@H](N)Cc1ccc(O)cc1)C(=O)N[C@H]1CSSC[C@@H](C(=O)N(C)[C@H](C(N)=O)[C@@H](C)CC)NC(=O)[C@H](CCCNC(=N)N)NC(=O)[C@H](Cc2c[nH]cn2)NC(=O)[C@H](C)NC(=O)CN(C)C(=O)[C@H](Cc2c[nH]c3ccccc23)NC(=O)[C@H](CC(=O)O)NC(=O)[C@H](CCC(N)=O)NC(=O)[C@H](Cc2cn(C)c3ccccc23)NC(=O)[C@H]([C@@H](C)CC)NC1=O
Turning to B2, the “IC50[nM], inhibition of hemolysis” value was less than 100 nM.

B3: Compound 37 (peptide)
peptide: Ac-KEKICIWQDWGEHRCTEKE-NH2
modifications: disulfide 5-15
SMILES: CC[C@H](C)[C@@H]1NC(=O)[C@@H](NC(=O)[C@@H](NC(=O)[C@H](CCCCN)NC(=O)[C@H](CCC(=O)O)NC(=O)[C@H](CCCCN)NC(C)=O)[C@@H](C)CC)CSSC[C@@H](C(=O)N[C@H](C(=O)N[C@@H](CCC(=O)O)C(=O)N[C@@H](CCCCN)C(=O)N[C@@H](CCC(=O)O)C(N)=O)[C@@H](C)O)NC(=O)[C@H](CCCNC(=N)N)NC(=O)[C@H](Cc2c[nH]cn2)NC(=O)[C@H](CCC(=O)O)NC(=O)CNC(=O)[C@H](Cc2c[nH]c3ccccc23)NC(=O)[C@H](CC(=O)O)NC(=O)[C@H](CCC(N)=O)NC(=O)[C@H](Cc2c[nH]c3ccccc23)NC1=O
For the molecule B3, the “IC50[nM], inhibition of hemolysis” value was less than 250 nM.

B4: Compound 47 (peptide)
peptide: Ac-ICIWQDWGAHRCTGAES-NH2
modifications: disulfide 2-12
SMILES: CC[C@H](C)[C@H](NC(C)=O)C(=O)N[C@H]1CSSC[C@@H](C(=O)N[C@H](C(=O)NCC(=O)N[C@@H](C)C(=O)N[C@@H](CCC(=O)O)C(=O)N[C@@H](CO)C(N)=O)[C@@H](C)O)NC(=O)[C@H](CCCNC(=N)N)NC(=O)[C@H](Cc2c[nH]cn2)NC(=O)[C@H](C)NC(=O)CNC(=O)[C@H](Cc2c[nH]c3ccccc23)NC(=O)[C@H](CC(=O)O)NC(=O)[C@H](CCC(N)=O)NC(=O)[C@H](Cc2c[nH]c3ccccc23)NC(=O)[C@H]([C@@H](C)CC)NC1=O
As for B4, the “IC50[nM], inhibition of hemolysis” value was less than 100 nM.

B5: Compound 34 (peptide)
peptide: Ac-EICIWQDWGEHRCTEGE-NH2
modifications: disulfide 3-13
SMILES: CC[C@H](C)[C@@H]1NC(=O)[C@@H](NC(=O)[C@@H](NC(=O)[C@H](CCC(=O)O)NC(C)=O)[C@@H](C)CC)CSSC[C@@H](C(=O)N[C@H](C(=O)N[C@@H](CCC(=O)O)C(=O)NCC(=O)N[C@@H](CCC(=O)O)C(N)=O)[C@@H](C)O)NC(=O)[C@H](CCCNC(=N)N)NC(=O)[C@H](Cc2c[nH]cn2)NC(=O)[C@H](CCC(=O)O)NC(=O)CNC(=O)[C@H](Cc2c[nH]c3ccccc23)NC(=O)[C@H](CC(=O)O)NC(=O)[C@H](CCC(N)=O)NC(=O)[C@H](Cc2c[nH]c3ccccc23)NC1=O
As to B5, the “IC50[nM], inhibition of hemolysis” value is less than 250 nM.

B6: Compound 46 (peptide)
peptide: Ac-ESSAICIWQDWGAHRCT-NH2
modifications: disulfide 6-16
SMILES: CC[C@H](C)[C@H](NC(=O)[C@H](C)NC(=O)[C@H](CO)NC(=O)[C@H](CO)NC(=O)[C@H](CCC(=O)O)NC(C)=O)C(=O)N[C@H]1CSSC[C@@H](C(=O)N[C@H](C(N)=O)[C@@H](C)O)NC(=O)[C@H](CCCNC(=N)N)NC(=O)[C@H](Cc2c[nH]cn2)NC(=O)[C@H](C)NC(=O)CNC(=O)[C@H](Cc2c[nH]c3ccccc23)NC(=O)[C@H](CC(=O)O)NC(=O)[C@H](CCC(N)=O)NC(=O)[C@H](Cc2c[nH]c3ccccc23)NC(=O)[C@H]([C@@H](C)CC)NC1=O
In the case of B6, the “IC50[nM], inhibition of hemolysis” value is less than 100 nM.

B7: Compound 55 (peptide)
peptide: Ac-EGSAICIWQDWGEHRCTE-NH2
modifications: disulfide 6-16
SMILES: CC[C@H](C)[C@H](NC(=O)[C@H](C)NC(=O)[C@H](CO)NC(=O)CNC(=O)[C@H](CCC(=O)O)NC(C)=O)C(=O)N[C@H]1CSSC[C@@H](C(=O)N[C@H](C(=O)N[C@@H](CCC(=O)O)C(N)=O)[C@@H](C)O)NC(=O)[C@H](CCCNC(=N)N)NC(=O)[C@H](Cc2c[nH]cn2)NC(=O)[C@H](CCC(=O)O)NC(=O)CNC(=O)[C@H](Cc2c[nH]c3ccccc23)NC(=O)[C@H](CC(=O)O)NC(=O)[C@H](CCC(N)=O)NC(=O)[C@H](Cc2c[nH]c3ccccc23)NC(=O)[C@H]([C@@H](C)CC)NC1=O
Take B7: the “IC50[nM], inhibition of hemolysis” value is less than 250 nM.

B8: Compound 38 (peptide)
peptide: Ac-EKGICIWQDWGEHRCTEKP-NH2
modifications: disulfide 5-15
SMILES: CC[C@H](C)[C@H](NC(=O)CNC(=O)[C@H](CCCCN)NC(=O)[C@H](CCC(=O)O)NC(C)=O)C(=O)N[C@H]1CSSC[C@@H](C(=O)N[C@H](C(=O)N[C@@H](CCC(=O)O)C(=O)N[C@@H](CCCCN)C(=O)N2CCC[C@H]2C(N)=O)[C@@H](C)O)NC(=O)[C@H](CCCNC(=N)N)NC(=O)[C@H](Cc2c[nH]cn2)NC(=O)[C@H](CCC(=O)O)NC(=O)CNC(=O)[C@H](Cc2c[nH]c3ccccc23)NC(=O)[C@H](CC(=O)O)NC(=O)[C@H](CCC(N)=O)NC(=O)[C@H](Cc2c[nH]c3ccccc23)NC(=O)[C@H]([C@@H](C)CC)NC1=O
With B8, the “IC50[nM], inhibition of hemolysis” value was less than 250 nM.

B9: Compound 36 (peptide)
peptide: Ac-ESEICIWQDWGEHRCEGE-NH2
modifications: disulfide 5-15
SMILES: CC[C@H](C)[C@@H]1NC(=O)[C@@H](NC(=O)[C@@H](NC(=O)[C@H](CCC(=O)O)NC(=O)[C@H](CO)NC(=O)[C@H](CCC(=O)O)NC(C)=O)[C@@H](C)CC)CSSC[C@@H](C(=O)N[C@@H](CCC(=O)O)C(=O)NCC(=O)N[C@@H](CCC(=O)O)C(N)=O)NC(=O)[C@H](CCCNC(=N)N)NC(=O)[C@H](Cc2c[nH]cn2)NC(=O)[C@H](CCC(=O)O)NC(=O)CNC(=O)[C@H](Cc2c[nH]c3ccccc23)NC(=O)[C@H](CC(=O)O)NC(=O)[C@H](CCC(N)=O)NC(=O)[C@H](Cc2c[nH]c3ccccc23)NC1=O
Take B9: the “IC50[nM], inhibition of hemolysis” value is less than 250 nM.

B10: Compound 42 (peptide)
peptide: Ac-SAICIWQDWGEHRCTEG-NH2
modifications: disulfide 4-14
SMILES: CC[C@H](C)[C@H](NC(=O)[C@H](C)NC(=O)[C@H](CO)NC(C)=O)C(=O)N[C@H]1CSSC[C@@H](C(=O)N[C@H](C(=O)N[C@@H](CCC(=O)O)C(=O)NCC(N)=O)[C@@H](C)O)NC(=O)[C@H](CCCNC(=N)N)NC(=O)[C@H](Cc2c[nH]cn2)NC(=O)[C@H](CCC(=O)O)NC(=O)CNC(=O)[C@H](Cc2c[nH]c3ccccc23)NC(=O)[C@H](CC(=O)O)NC(=O)[C@H](CCC(N)=O)NC(=O)[C@H](Cc2c[nH]c3ccccc23)NC(=O)[C@H]([C@@H](C)CC)NC1=O
As to B10, the “IC50[nM], inhibition of hemolysis” value is less than 250 nM.

B11: Compound 35 (peptide)
peptide: Ac-EGEICIWQDWGEHRCEGE-NH2
modifications: disulfide 5-15
SMILES: CC[C@H](C)[C@@H]1NC(=O)[C@@H](NC(=O)[C@@H](NC(=O)[C@H](CCC(=O)O)NC(=O)CNC(=O)[C@H](CCC(=O)O)NC(C)=O)[C@@H](C)CC)CSSC[C@@H](C(=O)N[C@@H](CCC(=O)O)C(=O)NCC(=O)N[C@@H](CCC(=O)O)C(N)=O)NC(=O)[C@H](CCCNC(=N)N)NC(=O)[C@H](Cc2c[nH]cn2)NC(=O)[C@H](CCC(=O)O)NC(=O)CNC(=O)[C@H](Cc2c[nH]c3ccccc23)NC(=O)[C@H](CC(=O)O)NC(=O)[C@H](CCC(N)=O)NC(=O)[C@H](Cc2c[nH]c3ccccc23)NC1=O
In the case of B11, the “IC50[nM], inhibition of hemolysis” value is less than 500 nM.

B12: Compound 62 (peptide)
peptide: Ac-YCI[Trp(1-Me)]QDWGEHRCTGAES-NH2
modifications: disulfide 2-12
SMILES: CC[C@H](C)[C@@H]1NC(=O)[C@@H](NC(=O)[C@H](Cc2ccc(O)cc2)NC(C)=O)CSSC[C@@H](C(=O)N[C@H](C(=O)NCC(=O)N[C@@H](C)C(=O)N[C@@H](CCC(=O)O)C(=O)N[C@@H](CO)C(N)=O)[C@@H](C)O)NC(=O)[C@H](CCCNC(=N)N)NC(=O)[C@H](Cc2c[nH]cn2)NC(=O)[C@H](CCC(=O)O)NC(=O)CNC(=O)[C@H](Cc2c[nH]c3ccccc23)NC(=O)[C@H](CC(=O)O)NC(=O)[C@H](CCC(N)=O)NC(=O)[C@H](Cc2cn(C)c3ccccc23)NC1=O
Turning to B12, the “IC50[nM], inhibition of hemolysis” value was less than 100 nM.

B13: Compound 51 (peptide)
peptide: Ac-ICI[Trp(1-Me)]QDWGEHRCTGAES-NH2
modifications: disulfide 2-12
SMILES: CC[C@H](C)[C@H](NC(C)=O)C(=O)N[C@H]1CSSC[C@@H](C(=O)N[C@H](C(=O)NCC(=O)N[C@@H](C)C(=O)N[C@@H](CCC(=O)O)C(=O)N[C@@H](CO)C(N)=O)[C@@H](C)O)NC(=O)[C@H](CCCNC(=N)N)NC(=O)[C@H](Cc2c[nH]cn2)NC(=O)[C@H](CCC(=O)O)NC(=O)CNC(=O)[C@H](Cc2c[nH]c3ccccc23)NC(=O)[C@H](CC(=O)O)NC(=O)[C@H](CCC(N)=O)NC(=O)[C@H](Cc2cn(C)c3ccccc23)NC(=O)[C@H]([C@@H](C)CC)NC1=O
For B13, the “IC50[nM], inhibition of hemolysis” value was less than 100 nM.
